Patent publication US20190201542A1, “ANTI-DLL3 DRUG CONJUGATES FOR TREATING TUMORS AT RISK OF NEUROENDOCRINE TRANSITION” (ABBVIE STEMCENTRX LLC, priority 2016, published 2019)

Molecular target: T1, DLL3 (Homo sapiens, UniProt Q9NYJ7)
T1 sequence (Q9NYJ7 27-618): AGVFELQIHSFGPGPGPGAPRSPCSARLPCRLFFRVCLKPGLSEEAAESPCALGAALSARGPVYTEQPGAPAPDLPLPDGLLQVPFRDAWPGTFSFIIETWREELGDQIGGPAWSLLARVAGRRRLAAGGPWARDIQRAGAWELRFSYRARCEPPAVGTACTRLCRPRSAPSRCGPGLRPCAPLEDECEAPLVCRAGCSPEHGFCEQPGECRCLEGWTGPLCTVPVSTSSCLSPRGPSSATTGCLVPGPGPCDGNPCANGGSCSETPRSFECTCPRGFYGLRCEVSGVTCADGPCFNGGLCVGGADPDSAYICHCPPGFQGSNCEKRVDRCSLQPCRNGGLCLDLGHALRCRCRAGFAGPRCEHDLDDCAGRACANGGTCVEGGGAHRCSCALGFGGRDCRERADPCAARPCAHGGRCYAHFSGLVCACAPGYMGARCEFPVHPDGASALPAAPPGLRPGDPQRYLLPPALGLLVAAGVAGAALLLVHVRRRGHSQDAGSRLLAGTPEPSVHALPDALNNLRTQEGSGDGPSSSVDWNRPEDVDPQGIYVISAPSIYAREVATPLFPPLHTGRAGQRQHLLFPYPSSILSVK
Experiment: Binning (competitive antibody binding)
Source text: It is also possible to characterize the antibodies of the invention in terms of the group or “bin” to which they belong. “Binning” refers to the use of competitive antibody binding assays to identify pairs of antibodies that are incapable of binding an immunogenic determinant simultaneously, thereby identifying antibodies that “compete” for binding. Competing antibodies may be determined by an assay in which the antibody or immunologically functional fragment being tested prevents or inhibits specific binding of a reference antibody to a common antigen. Typically, such an assay involves the use of purified antigen (e.g., DLL3, ASCL1, or a domain or fragment thereof) bound to a solid surface or cells, an unlabeled test antibody and a labeled reference antibody. Competitive inhibition is measured by determining the amount of label bound to the solid surface or cells in the presence of the test antibody. Additional details regarding methods for determining competitive binding are provided in the Examples herein. […]
A schematic summary of the domain-level epitope mapping data of the antibodies tested is presented in FIG. 2, with antibodies binding a linear epitope underlined and, where determined, the corresponding bin noted in parenthesis. […]

B1: SC16.23: murine anti-DLL3 antibody (antibody, V domains shown)
VL: QIVLTQSPAIMSASPGEKVTLTCSASSSVSSRYLYWYQQKPGSSPKLWIYSTSNLASGVPARFSGSGSGTSYSLIISSMEAEDAASYFCHQWSNYPLTFGAGTKLELK
VH: QVTLKESGPGILQPSQTLSLTCSFSGFSLSTSNTGIGWIRQPSGTGLEWLAHIWWNDDKYYNPSLKSRLTISKETSNNQVFLKITNVDTADTASYFCVQIGRDYSNYAWYFDVWGAGTTVTVSS
  Binning with SC16.34 or SC16.56: not to bin with SC16.34 or SC16.56
